For test [1], the target named is T1, single chain human CD3ε-26mer-CD3γ (CD3εγ) (human).
T1 construct: also called human CD3εγ
T1 chain: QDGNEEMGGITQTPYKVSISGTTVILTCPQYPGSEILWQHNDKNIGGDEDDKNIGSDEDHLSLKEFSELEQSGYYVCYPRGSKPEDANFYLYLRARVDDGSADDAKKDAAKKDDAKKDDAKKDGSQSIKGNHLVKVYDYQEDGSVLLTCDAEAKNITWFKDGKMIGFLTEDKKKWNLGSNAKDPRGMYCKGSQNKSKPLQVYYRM
The test is described as follows: Biacore full (multi-) cycle kinetics; reference of the ratio column. From the text: (§1) In addition, position 95 in HVR-H3 was also mutated to serine, threonine, or glutamate. Variants with these single point mutations were expressed as Fabs in HEK293 cells and initially screened with a single cycle kinetics method on a Biacore T100. Selected variants were also scaled up and purified for a conventional multi-cycle kinetics method. For single cycle kinetics, Biacore Series S CM5 sensor chips were immobilized with anti-human Fab antibodies (Human Fab capture kit, GE Healthcare). […] For conventional multi-cycle kinetics, human CD3εγ, cyno CD3εγ, or a 27-mer peptide were immobilized on Biacore Series S CM5 sensor chip using the amine coupling kit from Biacore. Serial 3-fold dilutions of each Fab variant were injected at a flow rate of 30 μl/min. Each sample was analyzed with a protocol of 3-minute association and 3-minute dissociation. In both methods, the Biacore chips were regenerated using 10 mM Glycine (pH 1.7). Binding response was corrected by blank subtraction and a 1:1Languir model of simultaneous fitting of kₒₙ and koff was used for kinetics analysis.
A general note: In SPR one partner is held on a chip, and binding of the other changes the refractive index at the surface.

In another test the target is T2, N4A.
T2 construct: Residue number counts from the N-terminus of CD3ε; also called CD3εγ N4A; CD3 mutant N4A
T2 single chain CD3ε-26mer linker-CD3γ: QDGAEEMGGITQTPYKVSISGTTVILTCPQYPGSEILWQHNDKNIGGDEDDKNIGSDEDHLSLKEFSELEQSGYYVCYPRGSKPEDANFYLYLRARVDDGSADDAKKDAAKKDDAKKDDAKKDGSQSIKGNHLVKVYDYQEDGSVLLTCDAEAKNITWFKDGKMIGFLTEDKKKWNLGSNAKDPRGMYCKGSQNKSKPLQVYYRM
The test is described as follows: SPR (Biacore 4000): CD3εγ variant captured from the periplasmic fraction on UCHT1v9; analyte a bispecific antibody with one 38E4v1 arm and one irrelevant arm, 0.39-100 nM. The procedure:
(§2) The secreted CD3εγ variants were captured from the crude periplasmic fraction using anti-CD3 antibody UCHT1v9. UCHT1v9 was immobilized on a CM5 serios S chip through amine coupling using the anti-human IgG (Fc) antibody capture kit (BR-1008-39) from GE Healthcare. SPR measurements were performed on the Biacore 4000 instrument, utilizing kinetic evaluation software. In order to measure monovalent binding affinities, anti-CD3 bispecific antibodies were used in which one arm was the anti-CD3 to be tested and the arm recognized an irrelevant antigen. The bispecific anti-CD3 antibodies were passed over the captured supernatant in a concentration series of two-fold dilutions from 0.39 to 100 nM. The resulting kinetics (FIG. 13D) were measured and calculated using Biacore 4000 BIAevaluation software (product code 28-9664-57).

Test [2] addresses T1, single chain human CD3ε-26mer-CD3γ …. The test is described as follows: SPR (Biacore 4000): CD3εγ (row WT) captured from the periplasmic fraction on UCHT1v9; analyte a bispecific antibody with one 38E4v1 arm and one irrelevant arm, 0.39-100 nM. As to the method:
as §2

The target is the same in test [3]. The test is described as follows: Biacore, human CD3εγ on chip, antibody in flow-through.
The next test has as its target T3, cyCD3εγ (cynomolgus monkey).
T3 chain 1: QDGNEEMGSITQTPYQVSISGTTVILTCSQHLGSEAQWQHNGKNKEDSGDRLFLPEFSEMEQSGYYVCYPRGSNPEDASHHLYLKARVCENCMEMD
T3 chain 2: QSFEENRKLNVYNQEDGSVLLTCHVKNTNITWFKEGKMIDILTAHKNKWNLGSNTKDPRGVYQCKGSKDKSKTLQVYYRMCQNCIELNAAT
The test is described as follows: monovalent binding affinity, method not stated on the sheet.

The target of test [4] is T1, single chain human CD3ε-26mer-CD3γ …. Put plainly: Biacore single cycle kinetics; reference of the ratio column.
From the text: as §1

For test [5] the target is unchanged. Put plainly: Biacore, monovalent KD of the CD3 arm; CD3 antigen not named on the sheet (reactivity hu, cyno).
For test [6] the target is unchanged. The test is described as follows: Biacore single cycle kinetics: Fab captured by anti-human Fab, human CD3εγ injected (3-250 nM).
From the text: as §1

Test [7] has the same target. The test is described as follows: Biacore full (multi-) cycle kinetics: antigen on chip, Fab injected; antigen not named on the sheet, taken as human CD3εγ.
From the text: as §1

Test [8] shares this target. Put plainly: Biacore, human CD3εγ on chip, Fab in flow through. As to the method: Binding affinities for the each of the CD3/CD20 TDBs were tested by Biacore or FACS analysis, as described above for the anti-CD3 antibodies. Briefly, for Biacore binding assays, human CD3εγ was immobilized on Biacore Series S CM5 sensor chip using the amine coupling kit from Biacore and CD3/CD20 TDBs or Fab variants thereof were in the flow through. For FACS binding assays, either Bjab cells (for B cell antigens) or Jurkat cells (for CD3 antigen) were incubated with various concentrations of TDB antibodies at 4° C. for 30 minutes, then cells were washed and incubated with 2nd antibody (anti-huIgG-PE; BD Bioscience) for another 15 minutes, before cells were washed again and ready for FACS analysis.

B1: hu38E4.v1 Fab (Fab, V domains shown)
VH: EVQLVQSGAEVKKPGASVKVSCKASGFTFTSYYIHWVRQAPGQGLEWIGWIYPENDNTKYNEKFKDRVTITADTSTSTAYLELSSLRSEDTAVYYCARDGYSRYYFDYWGQGTLVTVSS
VL: DIVMTQSPDSLAVSLGERATINCKSSQSLLNSRTRKNYLAWYQQKPGQSPKLLIYWTSTRKSGVPDRFSGSGSGTDFTLTISSLQAEDVAVYYCKQSFILRTFGQGTKVEIK
notes: Humanized anti-CD3 Fab; Point mutants of it were expressed as Fabs in HEK293 cells
On to B1, for which the “ratio (fold)” value in [1] and in test [4] was 1 fold throughout. Further, the equilibrium dissociation constant (Kd) with N4A turned out to be 3 nM; in test [2] it was 3 nM; in test [3], 0.8 nM; with cyCD3εγ it was 0.7 nM; in test [5], 1.3 nM; in test [6], 3.4 nM. The dissociation constant Kd in test [7] and in test [8] was 0.8 nM each time. The koff in [3] was 0.0051 s⁻¹; in test [6], 0.00108 s⁻¹; in test [7], 0.00433 s⁻¹; in [8] it was 0.00507 s⁻¹. Further, the on-rate constant (kon) in test [3] worked out at 6.06e+06 M⁻¹ s⁻¹; in [6], 320000 M⁻¹ s⁻¹; in [7], 5.44e+06 M⁻¹ s⁻¹; in test [8], 6.06e+06 M⁻¹ s⁻¹.

For orientation: Kd means the equilibrium constant for the complex coming apart. Lower therefore signals tighter binding. One may read the koff as a measure of how fast the partners let go of each other. Higher therefore signals a short-lived complex. As usually defined, the kon is the second-order rate constant of association. Lower therefore signals slow association.

For the origin of these results see patent publication US20200299408A1 (Genentech, published 2020).
